# From patent US8304189, “Nucleic acid molecules containing recombination sites and methods of using the same” (Life Technologies Corporation)
# B1: TOPO adapter duplex (TOPO-1/TOPO-5/TOPO-4) (dsDNA)
# DNA 1: AATTCGCCCTTATTCCGATAGTG
# DNA 2: CAACACTATCGGAATA
# DNA 3: AGGGCG
# modifications: 5'-phosphate on TOPO-5
# Target: Vaccinia DNA topoisomerase I (Vaccinia virus, UniProt P68698 P68698:1-314)
# Assay: covalent charging of vector at CCCTT, 37 C 15 min, NEB buffer 1; charged vector cloned the test insert with 93.6-95.1% efficiency
# Settings: ligated to EcoRI-cut pCR8/GW ends
# Protocol: TOPO charging. To 5 μg of ligated DNA, 3 μg of TOPO-5 oligonucleotide (5'-CAACA CTATC GGAAT A-3' (SEQ ID NO: 66), phosphorylated on the 5' end), 10 μl 5× NEB #1 (New England Biolabs, Inc., Beverly, Mass. cat. no. M0202S), and 5 μg of Vaccinia Topoisomerase I was added and the volume adjusted to 50 μl with water. This reaction was incubated at 37° C. for 15 minutes before addition of 5 μl of 10× TOPO Stop Buffer (1 M Tris-HCl, pH 7.5, 500 mM EDTA). The TOPO adapted vector was then gel purified and quantified using the Hoechst dye assay.
# Testing of TOPO cloning efficiency. TOPO cloning efficiency was determined using a 500 bp PCR fragment containing a bacterial lac promoter driving the lacZ alpha fragment, this positive control fragment is found in some of Invitrogen's TOPO T/A cloning kits, for example, cat. no. K4300-01. Cloning of this fragment generated blue colonies on X-gal plates and colonies without the cloned fragment were white. The ratio of the total number of blue colonies to the total number of colonies was representative of the efficiency of the TOPO reaction. Twenty nanograms of the Taq polymerase generated 500 bp PCR product was used per TOPO reaction.
# T/A TOPO QC testing. The pCR8/GW/TOPO system was tested by TOPO cloning a Platinum taq-generated 500 bp test insert and selected ORFs into pCR8/GW/TOPO. TOPO cloning efficiency was measured using standard QC procedures. […]
binder,measurement,value
B1,binding result,binds
